Measurements as given in US20050123546A1 (Hoffmann-La Roche, published 2005).

T1: human CD20 (human, UniProt P11836 1-297)
T1 construct: whole, on cells; also called human CD20 antigen; Bp35
T1 sequence (looked up): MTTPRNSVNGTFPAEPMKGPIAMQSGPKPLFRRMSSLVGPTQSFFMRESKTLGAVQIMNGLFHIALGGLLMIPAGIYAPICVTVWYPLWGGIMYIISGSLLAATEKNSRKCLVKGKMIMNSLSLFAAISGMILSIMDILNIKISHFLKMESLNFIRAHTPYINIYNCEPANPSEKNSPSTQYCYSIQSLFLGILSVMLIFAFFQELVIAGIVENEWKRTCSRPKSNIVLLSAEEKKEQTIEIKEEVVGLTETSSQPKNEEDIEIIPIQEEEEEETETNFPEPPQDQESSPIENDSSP


Target: T1, human CD20
Test: flow cytometry on Raji cells
Procedure: 500.000 in 180 μl FACS buffer (PBS containing 2% FCS and 5 mM EDTA) were transferred to 5 ml polystyrene tubes and 20 ul 10 fold concentrated anti-CD20 antibody samples (1-5000 ng/ml final concentration) or PBS only were added and the tubes were incubated at 4° C. for 30 min. Subsequently, samples were washed twice with FACS buffer and pelleted at 300×g for 3 min. Supernatant was aspirated off and cells were taken up in 100 μl FACS buffer and 1 μl anti-Fc-specific F(ab′)₂—FITC fragments (Jackson Immuno Research Laboratories, USA) was added and the tubes were incubated at 4° C. for 30 min. Samples were washed twice with FACS buffer and taken up in 500 μl of FACS buffer containing 0.5 μg/ml PI for analysis by Flow Cytometry. Binding was determined by plotting the geometric mean fluorescence against the antibody concentrations.

Binder | binding result | binding intensity/stoichiometry compared to B-Ly1
B-HH1 complexed with the humanized B-Ly1 light chain (KV1) (antibody, human IgG1, V domains shown, also called BHH1-KV1) VH: QVQLVQSGAEVKKPGSSVKVSCKASGYTFSYSWMSWVRQAPGQGLEWMGRIFPGDGDTDYAQKFQGRVTITADKSTSTAYMELSSLRSEDTAVYYCARNVFDGYWLVYWGQGTLVTVSS VL: DIVMTQTPLSLPVTPGEPASISCRSSKSLLHSNGITYLYWYLQKPGQSPQLLIYQMSNLVSGVPDRFSGSGSGTDFTLKISRVEAEDVGVYYCAQNLELPYTFGGGTKVEIKR | binds | –
BHL11-KV1 (antibody, human IgG1, V domains shown, B-HL8 with the single mutation Glu1Gln) VH: QVQLVESGGGLVKPGGSLRLSCAASGFTFSYSWMNWVRQAPGKGLEWVGRIFPGDGDTDYNGKFKGRVTITADKSTSTAYMELSSLRSEDTAVYYCARNVFDGYWLVYWGQGTLVTVSS VL: DIVMTQTPLSLPVTPGEPASISCRSSKSLLHSNGITYLYWYLQKPGQSPQLLIYQMSNLVSGVPDRFSGSGSGTDFTLKISRVEAEDVGVYYCAQNLELPYTFGGGTKVEIKR | binds | –
B-HH1 (as compared in FIG. 12; light chain not stated) (antibody, V domains shown) VH: QVQLVQSGAEVKKPGSSVKVSCKASGYTFSYSWMSWVRQAPGQGLEWMGRIFPGDGDTDYAQKFQGRVTITADKSTSTAYMELSSLRSEDTAVYYCARNVFDGYWLVYWGQGTLVTVSS VL: DIVMTQTPLSLPVTPGEPASISCRSSKSLLHSNGITYLYWYLQKPGQSPQLLIYQMSNLVSGVPDRFSGSGSGTDFTLKISRVEAEDVGVYYCAQNLELPYTFGGGTKVEIK | – | ~0.5 fold of chB-Ly1
B-HH3 complexed with the humanized B-Ly1 light chain (KV1) (antibody, human IgG1, V domains shown, also called BHH3-KV1) VH: QVQLVQSGAEVKKPGSSVKVSCKASGYAFSYSWMNWVRQAPGQGLEWMGRIFPGDGDTDYNGKFKGRVTITADKSTSTAYMELSSLRSEDTAVYLCARNVFDGYWLVYWGQGTLVTVSS VL: DIVMTQTPLSLPVTPGEPASISCRSSKSLLHSNGITYLYWYLQKPGQSPQLLIYQMSNLVSGVPDRFSGSGSGTDFTLKISRVEAEDVGVYYCAQNLELPYTFGGGTKVEIKR | binds | –

Other lines, results leading:

binding result | binding intensity/stoichiometry compared to B-Ly1 | Binder
binds | – | BHH2-KV1 humanized IgG1 B-Ly1 anti-human CD20 antibody (non-glycoengineered) (antibody, V domains shown, also called BHH2-KV1-wt) VH: QVQLVQSGAEVKKPGSSVKVSCKASGYAFSYSWMNWVRQAPGQGLEWMGRIFPGDGDTDYNGKFKGRVTITADKSTSTAYMELSSLRSEDTAVYYCARNVFDGYWLVYWGQGTLVTVSS VL: DIVMTQTPLSLPVTPGEPASISCRSSKSLLHSNGITYLYWYLQKPGQSPQLLIYQMSNLVSGVPDRFSGSGSGTDFTLKISRVEAEDVGVYYCAQNLELPYTFGGGTKVEIKR
binds | – | BHL8-KV1 (antibody, human IgG1, V domains shown) VH: EVQLVESGGGLVKPGGSLRLSCAASGFTFSYSWMNWVRQAPGKGLEWVGRIFPGDGDTDYNGKFKGRVTITADKSTSTAYMELSSLRSEDTAVYYCARNVFDGYWLVYWGQGTLVTVSS VL: DIVMTQTPLSLPVTPGEPASISCRSSKSLLHSNGITYLYWYLQKPGQSPQLLIYQMSNLVSGVPDRFSGSGSGTDFTLKISRVEAEDVGVYYCAQNLELPYTFGGGTKVEIKR
binds | – | chimeric B-Ly1 antibody chB-Ly1 (antibody, V domains shown, also called parental antibody B-Ly1; copies: 2 + 2) VH: EVKLQQSGPELVKPGASVKISCKASGYAFSYSWMNWVKLRPGQGLEWIGRIFPGDGDTDYNGKFKGKATLTADKSSNTAYMQLTSLTSVDSAVYLCARNVFDGYWLVYWGQGTLVTVSA VL: DIVLTQTTNPVTLGTSASISCRSSKSLLHSNGITYLYWYLQKPGQSPQLLIYQMSNLVSGVPDRFSSSGSGTDFTLRISRVEAEDVGVYYCAQNLELPYTFGGGTKLEIKR
